In doi:10.1101/2022.01.20.477176v3:

Assays:
Experiment in all cases: purified protein
[1] = substrate: NC(=O)C1=CN([C@@H]2O[C@H](COP(=O)(O)OP(=O)(O)OC[C@H]3O[C@@H](n4cnc5c(N)ncnc54)[C@H](O)[C@@H]3O)[C@@H](O)[C@H]2O)C=CC1; settings: 1 mM acrylate, pH 6.5
[2] = substrate: C=CC(=O)O; settings: 150 μM NADH (saturating), pH 6.5
[3] = substrate: C=C(C)C(=O)O; settings: 150 μM NADH (saturating), pH 6.5

B1: ARD (NADH:acrylate oxidoreductase) (Vibrio harveyi) (protein)
chain: MAQLVDEIVFQSGVKLHNRIVMAPMTIQSAFFDGGVTQEMINYYAARSGGAGAIIVESAFVENYGRAFPGALGIDTDSKIAGLTKLADAIKAKGSKAILQIYHAGRMANPEFNGGHQPISASPVAALRDNAETPLEMTKEQIEEMIERFGDAVNRAILAGFDGVEIHGANTYLIQQFFSPHSNRRNDKWGGNIERRTSFPLAVLAKTKQVAEQHNKSDFIIGYRFSPEEIEQPGIRFDDTMFLLDKLATHGLDYFHFSMGSWLRNSIVTPEDQEPLIDKYRKLQSESVAKVPVIGVGGIAQRKDAENALEQGYDMVSVGKGYLVEPTWANKALNDETCAEFADIAQQEALQIPTPLWEIMDYMIVDSAAEALKHQRIKELQNVPIKFNSGEYTAYGRGHNGDLPVTVTFSEDKILDIVVDSSKESDGIANPAFERIPQQILDGQTLNIDVISGATVSSQAVLDGVSNAVDLAGGNSEALRCKAKEAVAWSSKTIEETVDIVVVGGGGAGLSATLTALDKGKSVVLLEKFPAIGGNTVRTGGWVNAAEPKWQGDFPALPGEKETLMLLAKTAESEFSGEYLEDFKVLKAQLDGYFTDLENGKQYLFDSVELHRIQTYLGGKRTDLNGESIYGQYDLVETLTSRSMESIDWLSEKGIDFDRSVVEIPVGALWRRAHKPKRPKGVEFIDKLSKRIQEQNGRIITDTRATDLMVDNGKVVGIKAVQADGTELILHVNHGVVLASGGFGANTQMIKKYNTYWKEIADDIKTTNSPALVGDGIEIGEKAGAELVGMGFVQLMPVGDPKSGALLTGLIVPPENFVFVNKQGKRFVDECGSRDVLSEAFFDNGGLIYMIADENIRQTAANTSDETIEREIKEGIIIQADTLEELAEKIGVPTQELTNTIAQYNACVDAGQDPEFHKSAFGLKVEKAPFYATPRQPSVHHTMGGLKIDTKARVIGKDGEVIQGLYAAGEVTGGIHAGNRLGGNALIDIFTYGRIAGESASDLV
- Km [1]: 14 ± 1 µM
- Km [2]: 16 ± 1 µM
- kcat [2]: 19 ± 1 s⁻¹
- Km [3]: 690 ± 140 µM
- kcat [3]: 2.5 ± 0.2 s⁻¹
